For 94 variants, protein stability index results are on record in the supplement of paper PMC10567573.

The chains are these.
B1: ANKRD44 (parent)
chain: FHCIETLVTTGANVNETDDWGRTA
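Further: lentivirally expressed fusions sorted by FACS into six bins by GFP to DsRed ratio, PSI derived from sequencing read proportions per bin multiplied by bin number.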

Variants of B1 are the subject of the data set. The data set can be described thus: protein stability index of a GFP-peptide fusion (GPS, HEK-293T) (PSI 1-6); higher = more stable. Conditions: c terminus: a fixed tail appended.
Take FHCIETLVTTGANGNETDDWGRTA [V14G]: the protein stability index stood at 1.86.
As to FHCIETLVTTGANANETDDWGRTA [V14A], the protein stability index is 2.2.
Then FHCIETLVTTGANCNETDDWGRTA [V14C], with 2.19; and FHCIETLVTTGANQNETDDWGRTA [V14Q], with 2.11; and FHCIETLVTTGANINETDDWGRTA [V14I], with 1.82.
Take FHCIETLVTTGANYNETDDWGRTA [V14Y]: the protein stability index is 1.77.
Consider FHCIETLVTTGANFNETDDWGRTA [V14F], for which the protein stability index was 2.14.
Turning to FHCIETLVTTGANHNETDDWGRTA [V14H], the protein stability index was found to be 1.94.
As to FHCIETLVTTGANRNETDDWGRTA [V14R], the protein stability index came out at 2.61.
Then FHCIETLVTTGANNNETDDWGRTA [V14N], with 3.
The result for FHCIETLVTTGANMNETDDWGRTA [V14M] reads 2.07.
In the case of FHCIETLVTTGANTNETDDWGRTA [V14T], the protein stability index came to 2.93.
On to FHCIETLVTTGAEVNETDDWGRTA [N13E], for which the protein stability index came out at 1.69.
Take FHCIETLVTTGALVNETDDWGRTA [N13L]: the protein stability index worked out at 2.11.
For the variant FHCIETLVTTGACVNETDDWGRTA [N13C], the protein stability index was 1.59.
Consider FHCIETLVTTGARVNETDDWGRTA [N13R], for which the protein stability index worked out at 2.1.
Regarding FHCIETLVTTGAHVNETDDWGRTA [N13H], the protein stability index amounted to 2.13.
The result for FHCIETLVTTGAYVNETDDWGRTA [N13Y] reads 1.68.
The result for FHCIETLVTTGAAVNETDDWGRTA [N13A] reads 2.56; that for FHCIETLVTTGAKVNETDDWGRTA [N13K], 2.36.
As for FHCIETLVTTGASVNETDDWGRTA [N13S], the protein stability index is 2.39.
Regarding FHCIETLVTTGAPVNETDDWGRTA [N13P], the protein stability index came to 2.41.
The result for FHCIETLVTTGATVNETDDWGRTA [N13T] reads 2.18; that for FHCIETLVTTGADVNETDDWGRTA [N13D], 2.51; that for FHCIETLVTTGAMVNETDDWGRTA [N13M], 1.5.
Then FHCIETLVTTGAGVNETDDWGRTA [N13G], with 2.21; and FHCIETLVTTGAFVNETDDWGRTA [N13F], with 3.16; and FHCIETLVTTGAVVNETDDWGRTA [N13V], with 2.61.
Then FHCIETLVTTGAIVNETDDWGRTA [N13I], with 2.31; and FHCIETLVTTGAQVNETDDWGRTA [N13Q], with 2.3.
As to FHCIETLVTTGAWVNETDDWGRTA [N13W], the protein stability index was found to be 1.77.
In the case of FHCIETLVTTGANVNETDDWGETA [R22E], the protein stability index turned out to be 2.91.
FHCIETLVTTGANVNETDDWGGTA [R22G]: the protein stability index was 1.88.
As to FHCIETLVTTGANVNETDDWGATA [R22A], the protein stability index was found to be 2.64.
Consider FHCIETLVTTGANVNETDDWGDTA [R22D], for which the protein stability index turned out to be 3.09.
With FHCIETLVTTGANVNETDDWGFTA [R22F], the protein stability index came out at 1.65.
As for FHCIETLVTTGANVNETDDWGCTA [R22C], the protein stability index worked out at 1.76.
Take FHCIETLVTTGANVMETDDWGRTA [N15M]: the protein stability index came to 1.69.
Regarding FHCIETLVTTGANVSETDDWGRTA [N15S], the protein stability index worked out at 1.64.
The result for FHCIETLVTTGANVPETDDWGRTA [N15P] reads 2.34; that for FHCIETLVTTGANVQETDDWGRTA [N15Q], 2.18.
With FHCIETLVTTGANVLETDDWGRTA [N15L], the protein stability index was found to be 2.21.
On to FHCIETLVTTGANVDETDDWGRTA [N15D], for which the protein stability index was 2.29.
The result for FHCIETLVTTGANVIETDDWGRTA [N15I] reads 1.54; that for FHCIETLVTTGANVFETDDWGRTA [N15F], 1.96; that for FHCIETLVTTGANVAETDDWGRTA [N15A], 1.76.
On to FHCIETLVTTGANVWETDDWGRTA [N15W], for which the protein stability index is 2.14.
FHCIETLVTTGANVHETDDWGRTA [N15H]: the protein stability index is 2.17.
With FHCIETLVTTGANVCETDDWGRTA [N15C], the protein stability index is 1.9.
As to FHCIETLVTTGANVEETDDWGRTA [N15E], the protein stability index came out at 2.13.
Then FHCIETLVTTGANVYETDDWGRTA [N15Y], with 1.96; and FHCIETLVTTGANVTETDDWGRTA [N15T], with 3.27; and FHCIETLVTTGANVGETDDWGRTA [N15G], with 1.85.
Consider FHCIETLVTTGANVRETDDWGRTA [N15R], for which the protein stability index was determined as 2.01.
With FHCIETLVTTGANVVETDDWGRTA [N15V], the protein stability index was found to be 2.
FHCIETLVTTGANVKETDDWGRTA [N15K]: the protein stability index worked out at 2.44.
Turning to FHCIETLVTTGANVNEQDDWGRTA [T17Q], the protein stability index was 2.27.
Take FHCIETLVTTGANVNEPDDWGRTA [T17P]: the protein stability index came out at 2.6.
In the case of FHCIETLVTTGANVNELDDWGRTA [T17L], the protein stability index is 1.76.
The result for FHCIETLVTTGANVNEWDDWGRTA [T17W] reads 2.04.
For the variant FHCIETLVTTGANVNEHDDWGRTA [T17H], the protein stability index is 1.83.
Consider FHCIETLVTTGANVNECDDWGRTA [T17C], for which the protein stability index is 2.14.
The result for FHCIETLVTTGANVNEKDDWGRTA [T17K] reads 2.02; that for FHCIETLVTTGANVNEDDDWGRTA [T17D], 2.29; that for FHCIETLVTTGANVNEIDDWGRTA [T17I], 2.24.
Take FHCIETLVTTGANVNEFDDWGRTA [T17F]: the protein stability index worked out at 2.
Regarding FHCIETLVTTGANVNERDDWGRTA [T17R], the protein stability index stood at 1.71.
For FHCIETLVTTGANVNEGDDWGRTA [T17G], the protein stability index worked out at 1.86.
Then FHCIETLVTTGANVNEYDDWGRTA [T17Y], with 1.9; and FHCIETLVTTGANVNENDDWGRTA [T17N], with 1.86.
For the variant FHCIETLVTTGANVNEMDDWGRTA [T17M], the protein stability index turned out to be 1.76.
For FHCIETLVTTGANVNESDDWGRTA [T17S], the protein stability index turned out to be 2.61.
As for FHCIETLVTTGANVNEEDDWGRTA [T17E], the protein stability index was determined as 2.84.
On to FHCIETLVTTGANVNEADDWGRTA [T17A], for which the protein stability index amounted to 1.92.
As to FHCIETLVTTGANVNEVDDWGRTA [T17V], the protein stability index is 2.
Consider FHCIETLVTTGANVNETEDWGRTA [D18E], for which the protein stability index came out at 2.09.
On to FHCIETLVTTGANVNETQDWGRTA [D18Q], for which the protein stability index was 1.69.
Consider FHCIETLVTTGANVNETCDWGRTA [D18C], for which the protein stability index is 2.14.
The result for FHCIETLVTTGANVNETVDWGRTA [D18V] reads 2.43; that for FHCIETLVTTGANVNETKDWGRTA [D18K], 1.65.
Regarding FHCIETLVTTGANVNETPDWGRTA [D18P], the protein stability index amounted to 1.71.
In the case of FHCIETLVTTGANVNETTDWGRTA [D18T], the protein stability index was 1.85.
In the case of FHCIETLVTTGANVNETNDWGRTA [D18N], the protein stability index amounted to 2.26.
The result for FHCIETLVTTGANVNETSDWGRTA [D18S] reads 2.18; that for FHCIETLVTTGANVNETIDWGRTA [D18I], 1.95.
Regarding FHCIETLVTTGANVNETADWGRTA [D18A], the protein stability index was 2.07.
As for FHCIETLVTTGANVNETYDWGRTA [D18Y], the protein stability index was determined as 2.46.
FHCIETLVTTGANVNETHDWGRTA [D18H]: the protein stability index is 1.54.
The result for FHCIETLVTTGANVNETMDWGRTA [D18M] reads 1.64.
On to FHCIETLVTTGANVNETRDWGRTA [D18R], for which the protein stability index worked out at 2.17.
On to FHCIETLVTTGANVNETLDWGRTA [D18L], for which the protein stability index worked out at 2.81.
With FHCIETLVTTGANVNETFDWGRTA [D18F], the protein stability index was found to be 2.21.
The result for FHCIETLVTTGANVNETGDWGRTA [D18G] reads 1.79; that for FHCIETLVTTGANVNETWDWGRTA [D18W], 2.07.
